# Measured values: the supplement of paper PMC10567573
# B1: TTC32 (parent)
# chain: YSAYIRRCACAASSDESPGSKCSP
# Variants of: B1
# Assay: protein stability index of a GFP-peptide fusion (GPS, HEK-293T) (PSI 1-6); higher = more stable
# Details: c terminus: a fixed tail appended
# 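Also: lentivirally expressed fusions sorted by FACS into six bins by GFP to DsRed ratio, PSI derived from sequencing read proportions per bin multiplied by bin number.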
row,Variant,protein stability index
1,YIAYIRRCACAASSDESPGSKCSP,1.58
2,YDAYIRRCACAASSDESPGSKCSP,2.6
3,YWAYIRRCACAASSDESPGSKCSP,1.91
4,YLAYIRRCACAASSDESPGSKCSP,2
5,YQAYIRRCACAASSDESPGSKCSP,2.02
6,YSAYIPRCACAASSDESPGSKCSP,2.66
7,YSAYIGRCACAASSDESPGSKCSP,2.53
8,YSAYIHRCACAASSDESPGSKCSP,1.82
9,YSAYIERCACAASSDESPGSKCSP,2.9
10,YSAYIFRCACAASSDESPGSKCSP,2.64
11,YSAYINRCACAASSDESPGSKCSP,2.58
12,YSAYIRRCACAASSDESPGYKCSP,1.61
13,YSAYIRRCACAASSDESPGLKCSP,2.15
14,YSAYIRRCACWASSDESPGSKCSP,2.04
15,YSAYIRRCACCASSDESPGSKCSP,2.06
16,YSAYIRRCACSASSDESPGSKCSP,1.95
17,YSAYIRRCACAASSDESPGSWCSP,2.23
18,YSAYIRRCACAASSDESPGSCCSP,2.37
19,YSAYIRRCACAASSDESPGSYCSP,2.8
20,YSAYIRRCACAASSDESPGSSCSP,1.86
21,YSAYIRRCACAASSDESPGSDCSP,1.92
22,YSAYIRRCACAASSDESPGSACSP,2.23
23,ISAYIRRCACAASSDESPGSKCSP,1.72
24,MSAYIRRCACAASSDESPGSKCSP,2.45

row,Variant,protein stability index
1,NSAYIRRCACAASSDESPGSKCSP,2.96
2,HSAYIRRCACAASSDESPGSKCSP,2.65
3,YSAYIRRCACAASSDESPGSKKSP,2.35
4,YSAYIRRCACAASSDESPGSKCSQ,2.04
5,YSAYIRRCACAASSDESPGSKCSF,1.35
6,YSAYIRRCACAASADESPGSKCSP,2.16
7,YSAYIRRCACAASHDESPGSKCSP,2.74
8,YSAYIRRCACAASKDESPGSKCSP,2.29
9,YSAYIRRCACAASIDESPGSKCSP,1.96
10,YSAYIRRCACAASVDESPGSKCSP,1.53
11,YSQYIRRCACAASSDESPGSKCSP,2.91
12,YSMYIRRCACAASSDESPGSKCSP,2.15
13,YSEYIRRCACAASSDESPGSKCSP,1.92
14,YSAYIRRCACAASSDESHGSKCSP,2.21
15,YSAYIRRCACAASSDESYGSKCSP,1.6
16,YSAYIRRCACAASSDESSGSKCSP,2.37
17,YSAYIRRCACAASSDESNGSKCSP,2.33
18,YSAYIRRCACAASSDESEGSKCSP,2.36
19,YSAYIRRCACAASSSESPGSKCSP,2.41
20,YSAYIRRCACAASSTESPGSKCSP,2.76
21,YSAYIRRCACAASSCESPGSKCSP,2.03
22,YSAYIRRCACAASSEESPGSKCSP,2.35
23,YSAYIRRCACAASSNESPGSKCSP,1.65
24,YSAYIRRCECAASSDESPGSKCSP,3.19

row,Variant,protein stability index
1,YSAYIRRCRCAASSDESPGSKCSP,2.66
2,YSAYIRRCGCAASSDESPGSKCSP,1.82
3,YSAYIRRCPCAASSDESPGSKCSP,2.16
4,YSAYIRRCACASSSDESPGSKCSP,2.48
5,YSAYIRRCACANSSDESPGSKCSP,2.33
6,YSAYIRRCACACSSDESPGSKCSP,1.94
7,YSAYIRRCACAASSDESPGSKCRP,2.44
8,YSAYIRRCACAASSDESPGSKCQP,2.05
9,YSAYIRRCACAASSDESPGSKCCP,2.26
10,YSAYIRRCACAASSDESPGSKCVP,2.52
11,YSAYIRRCACAASSDESPGSKCTP,2.09
12,YSAYGRRCACAASSDESPGSKCSP,2.09
13,YSAYARRCACAASSDESPGSKCSP,1.86
14,YSAYFRRCACAASSDESPGSKCSP,2.51
15,YSAYDRRCACAASSDESPGSKCSP,3.16
16,YSAYMRRCACAASSDESPGSKCSP,2.29
17,YSAYTRRCACAASSDESPGSKCSP,2.61
18,YSAYIRRCAWAASSDESPGSKCSP,1.44
19,YSAYIRRCAQAASSDESPGSKCSP,2.69
20,YSAYIRRCASAASSDESPGSKCSP,2.92
21,YSAYIRRCAEAASSDESPGSKCSP,3.78
22,YSAYIRRCACAAWSDESPGSKCSP,1.98
23,YSAYIRRCACAAGSDESPGSKCSP,2.57
24,YSAYIRRQACAASSDESPGSKCSP,3.23

row,Variant,protein stability index
1,YSAYIRRVACAASSDESPGSKCSP,2.67
2,YSAYIRRIACAASSDESPGSKCSP,2.21
3,YSAYIRRTACAASSDESPGSKCSP,3.06
4,YSAYIRRLACAASSDESPGSKCSP,2.38
5,YSAYIRNCACAASSDESPGSKCSP,2.78
6,YSAYIRICACAASSDESPGSKCSP,1.42
7,YSAYIRQCACAASSDESPGSKCSP,2.48
8,YSAYIRFCACAASSDESPGSKCSP,2.59
9,YSAYIRHCACAASSDESPGSKCSP,1.9
10,YSAYIRRCACAASSDYSPGSKCSP,2.36
11,YSAYIRRCACAASSDESPMSKCSP,1.74
12,YSAYIRRCACAASSDESPFSKCSP,2.32
13,YSAYIRRCACAASSDESPWSKCSP,4.05
14,YSAYIRRCACAASSDESPPSKCSP,2.31
15,YSAYIRRCACAASSDESPRSKCSP,2.04
16,YSAYIRRCACAASSDESPDSKCSP,2.83
17,YSAYIRRCACAASSDEKPGSKCSP,1.94
18,YSAYIRRCACAASSDECPGSKCSP,2.29
19,YSAYIRRCACAASSDENPGSKCSP,2.22
20,YSAYIRRCACAASSDELPGSKCSP,1.78
21,YSAYIRRCACAASSDEFPGSKCSP,1.85
22,YSAYIRRCACAASSDEVPGSKCSP,2.02
